Numbering of substitutions follows the chain as printed.
B1: target 2 MT 5'PFS UAA 3'PFS UGU (mixed)
RNA 1: CACCCGUGCAAAAUUGCAGGGGUCUAAAACCUUCUCCAAAUUGUUUCAUCCU
RNA 2: GGGAAUGGAUCCACAUCUACGAAUUCUAAAGGAUGAAACAAUUUGGAGAAGUGUAGAUCGGAAGAGCACACGU
B2: target 2 MT 5'PFS GGA 3'PFS CCA (mixed)
RNA 1: B1 RNA 1
RNA 2: B1 RNA 2 with U27G, A28G, U52C, G53C, U54A
B3: target 2 MT 5'PFS UAG 3'PFS CGC (mixed)
RNA 1: B1 RNA 1
RNA 2: B1 RNA 2 with A29G, U52C, U54C
B4: target 2 MT 5'PFS GGC 3'PFS UUA (mixed)
RNA 1: B1 RNA 1
RNA 2: B1 RNA 2 with U27G, A28G, A29C, G53U, U54A
B5: target 2 MT 5'PFS GGU 3'PFS CGC (mixed)
RNA 1: B1 RNA 1
RNA 2: B1 RNA 2 with U27G, A28G, A29U, U52C, U54C
B6: target 2 MT 5'PFS GGA 3'PFS CCG (mixed)
RNA 1: B1 RNA 1
RNA 2: B1 RNA 2 with U27G, A28G, U52C, G53C, U54G
B7: target 2 MT 5'PFS GUC 3'PFS UGA (mixed)
RNA 1: B1 RNA 1
RNA 2: B1 RNA 2 with U27G, A28U, A29C, U54A
B8: target 2 MT 5'PFS GGU 3'PFS CGA (mixed)
RNA 1: B1 RNA 1
RNA 2: B1 RNA 2 with U27G, A28G, A29U, U52C, U54A
B9: target 2 MT 5'PFS AAC 3'PFS UAU (mixed)
RNA 1: B1 RNA 1
RNA 2: B1 RNA 2 with U27A, A29C, G53A
B10: target 2 MT 5'PFS CUA 3'PFS UAG (mixed)
RNA 1: B1 RNA 1
RNA 2: B1 RNA 2 with U27C, A28U, G53A, U54G
B11: target 2 MT 5'PFS GGU 3'PFS CGG (mixed)
RNA 1: B1 RNA 1
RNA 2: B1 RNA 2 with U27G, A28G, A29U, U52C, U54G
B12: target 2 MT 5'PFS GGC 3'PFS UUC (mixed)
RNA 1: B1 RNA 1
RNA 2: B1 RNA 2 with U27G, A28G, A29C, G53U, U54C
B13: target 2 MT 5'PFS AAC 3'PFS ACG (mixed)
RNA 1: B1 RNA 1
RNA 2: B1 RNA 2 with U27A, A29C, U52A, G53C, U54G
B14: target 2 MT 5'PFS CAA 3'PFS UCC (mixed)
RNA 1: B1 RNA 1
RNA 2: B1 RNA 2 with U27C, G53C, U54C
B15: target 2 MT 5'PFS UAA 3'PFS UGC (mixed)
RNA 1: B1 RNA 1
RNA 2: B1 RNA 2 with U54C
B16: target 2 MT 5'PFS AAC 3'PFS ACC (mixed)
RNA 1: B1 RNA 1
RNA 2: B1 RNA 2 with U27A, A29C, U52A, G53C, U54C
B17: target 2 MT 5'PFS GGU 3'PFS CGU (mixed)
RNA 1: B1 RNA 1
RNA 2: B1 RNA 2 with U27G, A28G, A29U, U52C
B18: target 1 insG 3' of 4,insG 3' of 1 (mixed)
RNA 1: CACCCGUGCAAAAAUGCAGGGGUCUAAAACUGAGCGGAUAACCUCUCUAUGG
RNA 2: GGGAAUGGAUCCACAUCUACGAAUUCGUACCAUAGAGAGGUUAUCCGCGUCAGCCGAGAUCGGAAGAGCACACGU

Target: T1, EsCas13d, nuclease-dead (Eubacterium siraeum, UniProt B0MS50, R295A;H300A;R849A;H854A)
T1 sequence: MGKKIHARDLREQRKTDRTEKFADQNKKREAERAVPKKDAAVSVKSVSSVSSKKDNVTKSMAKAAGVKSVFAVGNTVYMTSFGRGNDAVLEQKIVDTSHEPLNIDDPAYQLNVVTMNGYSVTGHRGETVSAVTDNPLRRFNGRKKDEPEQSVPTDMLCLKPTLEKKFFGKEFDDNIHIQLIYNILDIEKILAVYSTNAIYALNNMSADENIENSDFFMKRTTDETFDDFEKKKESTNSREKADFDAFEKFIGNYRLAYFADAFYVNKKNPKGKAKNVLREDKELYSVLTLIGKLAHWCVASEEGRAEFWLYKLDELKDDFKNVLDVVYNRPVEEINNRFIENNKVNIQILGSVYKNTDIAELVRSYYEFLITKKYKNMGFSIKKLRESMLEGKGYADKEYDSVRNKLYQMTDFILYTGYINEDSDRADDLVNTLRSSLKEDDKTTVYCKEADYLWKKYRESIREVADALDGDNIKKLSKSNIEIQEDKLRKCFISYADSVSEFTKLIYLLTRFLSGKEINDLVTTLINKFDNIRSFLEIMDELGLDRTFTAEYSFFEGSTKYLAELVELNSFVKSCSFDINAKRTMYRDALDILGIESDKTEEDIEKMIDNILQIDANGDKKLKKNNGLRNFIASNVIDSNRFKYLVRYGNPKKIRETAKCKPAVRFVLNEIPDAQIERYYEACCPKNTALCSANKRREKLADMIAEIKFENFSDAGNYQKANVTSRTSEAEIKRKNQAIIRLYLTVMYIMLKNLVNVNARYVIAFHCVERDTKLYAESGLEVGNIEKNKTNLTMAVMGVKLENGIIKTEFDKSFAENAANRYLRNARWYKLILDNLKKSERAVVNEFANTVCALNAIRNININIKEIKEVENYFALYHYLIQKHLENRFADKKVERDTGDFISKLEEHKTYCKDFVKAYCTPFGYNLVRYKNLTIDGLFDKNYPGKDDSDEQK
Experiment: crRNA (strand 1, pre-loaded); Mg2+; 40 mM Tris-HCl pH 7.5, 150 mM NaCl, 6 mM MgCl2, 1 mM DTT, 0.1% Tween-20, 0.2 mg/ml BSA; 25 C; 10 min per concentration, then washed
Settings: tags: His6-TwinStrep-SUMO cleaved; N-terminal SNAP kept (SNAP-Surface 488); label: 3' end held by stalled T7 RNA polymerase

Row | Binder | Kd [nM]
1 | B1 | 9.5 ± 1.5
2 | B2 | 27 ± 5
3 | B3 | 2.36 ± 0.26
4 | B4 | 15.2 ± 1.8
5 | B5 | 15.1 ± 1.4
6 | B6 | 12.3 ± 1.2
7 | B7 | 17.4 ± 2.6
8 | B8 | 15.4 ± 2.1
9 | B9 | 5.4 ± 0.8
10 | B10 | 1.9 ± 0.4
11 | B11 | 15.6 ± 1.4
12 | B12 | 18.8 ± 2.3
13 | B13 | 6.1 ± 1.6
14 | B14 | 7.3 ± 0.6
15 | B15 | 5.6 ± 1.2
16 | B16 | 7 ± 2.4
17 | B17 | 22.3 ± 2.6
18 | B18 | 6 ± 0.4

Source: publication PMC10786891, “Massively parallel profiling of RNA-targeting CRISPR-Cas13d”
